Measurements reported in IntAct's records for PubMed 17127621.

B1: Basigin (Homo sapiens), P35613 (parent)
chain: MAAALFVLLGFALLGTHGASGAAGFVQAPLSQQRWVGGSVELHCEAVGSPVPEIQWWFEGQGPNDTCSQLWDGARLDRVHIHATYHQHAASTISIDTLVEEDTGTYECRASNDPDRNHLTRAPRVKWVRAQAVVLVLEPGTVFTTVEDLGSKILLTCSLNDSATEVTGHRWLKGGVVLKEDALPGQKTEFKVDSDDQWGEYSCVFLPEPMGTANIQLHGPPRVKAVKSSEHINEGETAMLVCKSESVPPVTDWAWYKITDSEDKALMNGSESRFFVSSSQGRSELHIENLNMEADPGQYRCNGTSSKGSDQAIITLRVRSHLAALWPFLGIVAEVLVLVTIIFIYEKRRKPEDVLDDDDAGSAPLKSSGQHQNDKGKNVRQRNSS
partner: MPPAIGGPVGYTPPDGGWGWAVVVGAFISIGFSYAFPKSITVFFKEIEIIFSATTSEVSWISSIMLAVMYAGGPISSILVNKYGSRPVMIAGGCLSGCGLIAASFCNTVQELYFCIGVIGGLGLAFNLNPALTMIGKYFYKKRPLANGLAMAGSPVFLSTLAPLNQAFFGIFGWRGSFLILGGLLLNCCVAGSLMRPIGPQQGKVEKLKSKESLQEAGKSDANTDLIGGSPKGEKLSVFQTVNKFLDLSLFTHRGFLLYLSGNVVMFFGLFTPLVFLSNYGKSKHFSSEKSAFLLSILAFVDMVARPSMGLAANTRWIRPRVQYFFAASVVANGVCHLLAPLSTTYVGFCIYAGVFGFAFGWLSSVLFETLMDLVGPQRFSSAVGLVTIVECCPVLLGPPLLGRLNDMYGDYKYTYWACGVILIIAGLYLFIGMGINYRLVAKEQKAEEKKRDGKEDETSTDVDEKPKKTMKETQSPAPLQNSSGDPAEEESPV
B2: Monocarboxylate transporter 1 (Rattus norvegicus (Rat)), P53987 (parent)
chain: B1 partner

Tests used:
mot1_rat Slc16a1, P53987 [1] = variants of: B1; conditions: with mot1_rat Slc16a1, P53987
mot1_rat Slc16a1, P53987 [2] = variants of: B1; conditions: with mot1_rat Slc16a1, P53987; remark: listed apart in the source
basi_human BSG, P35613 [3] = variants of: B2; conditions: with basi_human BSG
basi_human BSG, P35613 [4] = variants of: B2; conditions: with basi_human BSG; remark: listed apart in the source

Variant	effect of a mutation on the interaction (mot1_rat Slc16a1, P53987 [1])	effect of a mutation on the interaction (mot1_rat Slc16a1, P53987 [2])	effect of a mutation on the interaction (basi_human BSG, P35613 [3])	effect of a mutation on the interaction (basi_human BSG, P35613 [4])
E334R	decreasing interaction strength			
E334Q	decreasing interaction strength	with no effect		
R86E			with no effect	decreasing interaction strength
R86Q			with no effect	decreasing interaction strength
R196E			disrupting interaction strength	
